Results taken from paper PMC6831621, “Structural Insight Into Chitin Degradation and Thermostability of a Novel Endochitinase From the Glycoside Hydrolase Family 18” (Frontiers in Microbiology, 2019).

Substrate: CC(=O)N[C@H]1[C@H](Oc2ccc3c(C)cc(=O)oc3c2)O[C@H](CO)[C@@H](O[C@@H]2O[C@H](CO)[C@@H](O)[C@H](O)[C@H]2NC(C)=O)[C@@H]1O
Assay: fluorogenic substrate hydrolysis, Michaelis-Menten non-linear fit
Assay type: biochemical, Pseudoalteromonas aurantia
Details: McIlvaine's buffer pH 5.0, substrate 0.01-0.6 mM, temperature not given for kinetics
Description: fluorogenic substrate hydrolysis, Michaelis-Menten non-linear fit on Chi23

Protein | Km | Vmax | kcat
Chi23 (Pseudoalteromonas aurantia; G79A) (protein, pET22b NdeI/XhoI, His-tagged (C-terminal by primer design), E. coli BL21(DE3); monomer; forward primer encodes MSKTITYYNS, reverse primer encodes AQSLNS at the C-terminus) MSKTITYYNSGAVPLINASELPYDVVNLAFLSSSSNNPFNLVLSGAIAATESSFTTNTIEAIKVMQHKGQKVLISFGGATMGSNAYRSLSEDTAKLADSLASFVKNNQLDGVDIDYEDTAAFTGQAGYDGAQFLISLTQELRKRLPSPDYIISHAPQPPYLEQGGYMAGYVEVVELVGQEIDWLNVQFYNNPPWSANPDQIVSSYLNYTKLPNMSPEKVIAGFPVTQNDAGSGYMPVQTIINEVIKPIQQQSSLGGIMNWQFSSDHNGDWIKAIAQSLNS | 72.6 ± 6.9 µM | 0.0576 µmol/min/mg | 0.0295 ± 0.0013 s⁻¹
Chi23 (Pseudoalteromonas aurantia; T80A) (protein, pET22b NdeI/XhoI, His-tagged (C-terminal by primer design), E. coli BL21(DE3); monomer; forward primer encodes MSKTITYYNS, reverse primer encodes AQSLNS at the C-terminus) MSKTITYYNSGAVPLINASELPYDVVNLAFLSSSSNNPFNLVLSGAIAATESSFTTNTIEAIKVMQHKGQKVLISFGGGAMGSNAYRSLSEDTAKLADSLASFVKNNQLDGVDIDYEDTAAFTGQAGYDGAQFLISLTQELRKRLPSPDYIISHAPQPPYLEQGGYMAGYVEVVELVGQEIDWLNVQFYNNPPWSANPDQIVSSYLNYTKLPNMSPEKVIAGFPVTQNDAGSGYMPVQTIINEVIKPIQQQSSLGGIMNWQFSSDHNGDWIKAIAQSLNS | 85.6 ± 7.2 µM | 0.0144 µmol/min/mg | 0.0073 ± 0.0003 s⁻¹
Chi23 (Pseudoalteromonas aurantia; D229A) (protein, pET22b NdeI/XhoI, His-tagged (C-terminal by primer design), E. coli BL21(DE3); monomer; forward primer encodes MSKTITYYNS, reverse primer encodes AQSLNS at the C-terminus) MSKTITYYNSGAVPLINASELPYDVVNLAFLSSSSNNPFNLVLSGAIAATESSFTTNTIEAIKVMQHKGQKVLISFGGGTMGSNAYRSLSEDTAKLADSLASFVKNNQLDGVDIDYEDTAAFTGQAGYDGAQFLISLTQELRKRLPSPDYIISHAPQPPYLEQGGYMAGYVEVVELVGQEIDWLNVQFYNNPPWSANPDQIVSSYLNYTKLPNMSPEKVIAGFPVTQNAAGSGYMPVQTIINEVIKPIQQQSSLGGIMNWQFSSDHNGDWIKAIAQSLNS | 80.1 ± 6.3 µM | 0.0027 µmol/min/mg | 0.0014 ± 5e-05 s⁻¹
Chi23 (Pseudoalteromonas aurantia; Q157A) (protein, pET22b NdeI/XhoI, His-tagged (C-terminal by primer design), E. coli BL21(DE3); monomer; forward primer encodes MSKTITYYNS, reverse primer encodes AQSLNS at the C-terminus) MSKTITYYNSGAVPLINASELPYDVVNLAFLSSSSNNPFNLVLSGAIAATESSFTTNTIEAIKVMQHKGQKVLISFGGGTMGSNAYRSLSEDTAKLADSLASFVKNNQLDGVDIDYEDTAAFTGQAGYDGAQFLISLTQELRKRLPSPDYIISHAPAPPYLEQGGYMAGYVEVVELVGQEIDWLNVQFYNNPPWSANPDQIVSSYLNYTKLPNMSPEKVIAGFPVTQNDAGSGYMPVQTIINEVIKPIQQQSSLGGIMNWQFSSDHNGDWIKAIAQSLNS | 104.1 ± 17.5 µM | 0.0044 µmol/min/mg | 0.0022 ± 0.0002 s⁻¹
Chi23 (Pseudoalteromonas aurantia) (protein, pET22b NdeI/XhoI, His-tagged (C-terminal by primer design), E. coli BL21(DE3); monomer; forward primer encodes MSKTITYYNS, reverse primer encodes AQSLNS at the C-terminus) MSKTITYYNSGAVPLINASELPYDVVNLAFLSSSSNNPFNLVLSGAIAATESSFTTNTIEAIKVMQHKGQKVLISFGGGTMGSNAYRSLSEDTAKLADSLASFVKNNQLDGVDIDYEDTAAFTGQAGYDGAQFLISLTQELRKRLPSPDYIISHAPQPPYLEQGGYMAGYVEVVELVGQEIDWLNVQFYNNPPWSANPDQIVSSYLNYTKLPNMSPEKVIAGFPVTQNDAGSGYMPVQTIINEVIKPIQQQSSLGGIMNWQFSSDHNGDWIKAIAQSLNS | 64.6 ± 11.7 µM | 0.0107 µmol/min/mg | 0.0054 ± 0.0005 s⁻¹
Chi23 (Pseudoalteromonas aurantia; Q261A) (protein, pET22b NdeI/XhoI, His-tagged (C-terminal by primer design), E. coli BL21(DE3); monomer; forward primer encodes MSKTITYYNS, reverse primer encodes AQSLNS at the C-terminus) MSKTITYYNSGAVPLINASELPYDVVNLAFLSSSSNNPFNLVLSGAIAATESSFTTNTIEAIKVMQHKGQKVLISFGGGTMGSNAYRSLSEDTAKLADSLASFVKNNQLDGVDIDYEDTAAFTGQAGYDGAQFLISLTQELRKRLPSPDYIISHAPQPPYLEQGGYMAGYVEVVELVGQEIDWLNVQFYNNPPWSANPDQIVSSYLNYTKLPNMSPEKVIAGFPVTQNDAGSGYMPVQTIINEVIKPIQQQSSLGGIMNWAFSSDHNGDWIKAIAQSLNS | 86.3 ± 6.6 µM | 0.0009 µmol/min/mg | 0.0005 ± 2e-05 s⁻¹
Chi23 (Pseudoalteromonas aurantia; N190A) (protein, pET22b NdeI/XhoI, His-tagged (C-terminal by primer design), E. coli BL21(DE3); monomer; forward primer encodes MSKTITYYNS, reverse primer encodes AQSLNS at the C-terminus) MSKTITYYNSGAVPLINASELPYDVVNLAFLSSSSNNPFNLVLSGAIAATESSFTTNTIEAIKVMQHKGQKVLISFGGGTMGSNAYRSLSEDTAKLADSLASFVKNNQLDGVDIDYEDTAAFTGQAGYDGAQFLISLTQELRKRLPSPDYIISHAPQPPYLEQGGYMAGYVEVVELVGQEIDWLNVQFYANPPWSANPDQIVSSYLNYTKLPNMSPEKVIAGFPVTQNDAGSGYMPVQTIINEVIKPIQQQSSLGGIMNWQFSSDHNGDWIKAIAQSLNS | 77.4 ± 16.2 µM | 4e-05 µmol/min/mg | 2e-05 ± 2e-06 s⁻¹
Chi23 (Pseudoalteromonas aurantia; N9A) (protein, pET22b NdeI/XhoI, His-tagged (C-terminal by primer design), E. coli BL21(DE3); monomer; forward primer encodes …, reverse primer encodes AQSLNS at the C-terminus) MSKTITYYASGAVPLINASELPYDVVNLAFLSSSSNNPFNLVLSGAIAATESSFTTNTIEAIKVMQHKGQKVLISFGGGTMGSNAYRSLSEDTAKLADSLASFVKNNQLDGVDIDYEDTAAFTGQAGYDGAQFLISLTQELRKRLPSPDYIISHAPQPPYLEQGGYMAGYVEVVELVGQEIDWLNVQFYNNPPWSANPDQIVSSYLNYTKLPNMSPEKVIAGFPVTQNDAGSGYMPVQTIINEVIKPIQQQSSLGGIMNWQFSSDHNGDWIKAIAQSLNS | 90.1 ± 13.4 µM | 0.0042 µmol/min/mg | 0.0021 ± 0.0002 s⁻¹
